Measurements: patent US20180250358A1, “GHRH AGONISTS FOR THE TREATMENT OF ISCHEMIC DISORDERS” (published 2018)
Non-standard residues stand in square brackets, D forms with d. No end group written: not given here. *: point of attachment. Phe(F5) = N[C@@H](Cc1c(F)c(F)c(F)c(F)c1F)C(=O)O; Desaminotyrosyl = O=C(CCc1ccc(O)cc1)*; NMeY = CN[C@@H](Cc1ccc(O)cc1)C(=O)O; Agmatine = N=C(N)NCCCCN*; Nle = CCCC[C@H](N)C(=O)O; Orn = NCCC[C@H](N)C(=O)O; Abu = CC[C@H](N)C(=O)O; Ava = NCCCCC(=O)O

B1: P-27401 [Dat^1, D-Ala^2, Gln^8, Orn^12, Abu^15, Orn^21, Nle^27, Asp^28, D-Arg^29]hGHRH(1-29)NH-CH3 (peptide)
peptide: [Desaminotyrosyl][dA]DAIFTQSYR[Orn]VL[Abu]QLSAR[Orn]LLQDI[Nle]D[dR]-NHMe
SMILES: CCCC[C@H](NC(=O)[C@@H](NC(=O)[C@H](CC(=O)O)NC(=O)[C@H](CCC(N)=O)NC(=O)[C@H](CC(C)C)NC(=O)[C@H](CC(C)C)NC(=O)[C@H](CCCN)NC(=O)[C@H](CCCNC(=N)N)NC(=O)[C@H](C)NC(=O)[C@H](CO)NC(=O)[C@H](CC(C)C)NC(=O)[C@H](CCC(N)=O)NC(=O)[C@H](CC)NC(=O)[C@H](CC(C)C)NC(=O)[C@@H](NC(=O)[C@H](CCCN)NC(=O)[C@H](CCCNC(=N)N)NC(=O)[C@H](Cc1ccc(O)cc1)NC(=O)[C@H](CO)NC(=O)[C@H](CCC(N)=O)NC(=O)[C@@H](NC(=O)[C@H](Cc1ccccc1)NC(=O)[C@@H](NC(=O)[C@H](C)NC(=O)[C@H](CC(=O)O)NC(=O)[C@@H](C)NC(=O)CCc1ccc(O)cc1)[C@@H](C)CC)[C@@H](C)O)C(C)C)[C@@H](C)CC)C(=O)N[C@@H](CC(=O)O)C(=O)N[C@H](CCCNC(=N)N)C(=O)NC
B2: P-22326 [N-Me-Tyr^1, D-Ala^2, Gln^8, Orn^12, Abu^15, Orn^21, Nle^27, Asp^28, Apa^30]hGHRH(1-30)NH2 (peptide)
peptide: [NMeY][dA]DAIFTQSYR[Orn]VL[Abu]QLSAR[Orn]LLQDI[Nle]DR[Ava]-NH2
modifications: N-terminus assumed
SMILES: CCCC[C@H](NC(=O)[C@@H](NC(=O)[C@H](CC(=O)O)NC(=O)[C@H](CCC(N)=O)NC(=O)[C@H](CC(C)C)NC(=O)[C@H](CC(C)C)NC(=O)[C@H](CCCN)NC(=O)[C@H](CCCNC(=N)N)NC(=O)[C@H](C)NC(=O)[C@H](CO)NC(=O)[C@H](CC(C)C)NC(=O)[C@H](CCC(N)=O)NC(=O)[C@H](CC)NC(=O)[C@H](CC(C)C)NC(=O)[C@@H](NC(=O)[C@H](CCCN)NC(=O)[C@H](CCCNC(=N)N)NC(=O)[C@H](Cc1ccc(O)cc1)NC(=O)[C@H](CO)NC(=O)[C@H](CCC(N)=O)NC(=O)[C@@H](NC(=O)[C@H](Cc1ccccc1)NC(=O)[C@@H](NC(=O)[C@H](C)NC(=O)[C@H](CC(=O)O)NC(=O)[C@@H](C)NC(=O)[C@H](Cc1ccc(O)cc1)NC)[C@@H](C)CC)[C@@H](C)O)C(C)C)[C@@H](C)CC)C(=O)N[C@@H](CC(=O)O)C(=O)N[C@@H](CCCNC(=N)N)C(=O)NCCCCC(N)=O
B3: P-22327 [Dat^1, Gln^8, Orn^12, Abu^15, Orn^21, Nle^27, Asp^28, Apa^30]hGHRH(1-30)NH2 (peptide)
peptide: [Desaminotyrosyl]ADAIFTQSYR[Orn]VL[Abu]QLSAR[Orn]LLQDI[Nle]DR[Ava]-NH2
SMILES: CCCC[C@H](NC(=O)[C@@H](NC(=O)[C@H](CC(=O)O)NC(=O)[C@H](CCC(N)=O)NC(=O)[C@H](CC(C)C)NC(=O)[C@H](CC(C)C)NC(=O)[C@H](CCCN)NC(=O)[C@H](CCCNC(=N)N)NC(=O)[C@H](C)NC(=O)[C@H](CO)NC(=O)[C@H](CC(C)C)NC(=O)[C@H](CCC(N)=O)NC(=O)[C@H](CC)NC(=O)[C@H](CC(C)C)NC(=O)[C@@H](NC(=O)[C@H](CCCN)NC(=O)[C@H](CCCNC(=N)N)NC(=O)[C@H](Cc1ccc(O)cc1)NC(=O)[C@H](CO)NC(=O)[C@H](CCC(N)=O)NC(=O)[C@@H](NC(=O)[C@H](Cc1ccccc1)NC(=O)[C@@H](NC(=O)[C@H](C)NC(=O)[C@H](CC(=O)O)NC(=O)[C@H](C)NC(=O)CCc1ccc(O)cc1)[C@@H](C)CC)[C@@H](C)O)C(C)C)[C@@H](C)CC)C(=O)N[C@@H](CC(=O)O)C(=O)N[C@@H](CCCNC(=N)N)C(=O)NCCCCC(N)=O

biological target: T1, GHRH receptor of human pituitary membranes (human, UniProt Q02643); experiment: competition vs 125I-[His1,Nle27]hGHRH(1-32)NH2, human pituitary membranes
T1 sequence: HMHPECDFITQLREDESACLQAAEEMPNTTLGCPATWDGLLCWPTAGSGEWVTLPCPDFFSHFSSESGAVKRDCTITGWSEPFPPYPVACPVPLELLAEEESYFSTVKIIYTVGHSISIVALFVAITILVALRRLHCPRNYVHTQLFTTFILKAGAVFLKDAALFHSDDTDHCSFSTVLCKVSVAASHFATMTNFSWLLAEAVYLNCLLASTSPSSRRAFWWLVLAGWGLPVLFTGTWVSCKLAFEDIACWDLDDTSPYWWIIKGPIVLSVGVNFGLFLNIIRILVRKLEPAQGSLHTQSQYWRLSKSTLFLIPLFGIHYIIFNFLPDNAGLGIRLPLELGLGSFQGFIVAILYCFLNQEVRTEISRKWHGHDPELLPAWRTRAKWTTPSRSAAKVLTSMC
From the text: Normal human pituitary was purchased from the National Hormone and Peptide Program (UCLA Medical Center, Torrance, Calif.).

[NMeY][dA]DAIFTQSYR[Orn]VL[Abu]QLSAR[Orn]LLQDI[Nle]D[Agmatine] [P-20361 [N-Me-Tyr^1, D-Ala^2, Gln^8, Orn^12, Abu^15, Orn^21, Nle^27, Asp^28, Agm^29]hGHRH(1-29)NH2] and [NMeY][dA]DAIFTNSYR[Orn]VL[Abu]QLSAR[Orn]LLQDI[Nle]D[Agmatine] [P-20367 [N-Me-Tyr^1, D-Ala^2, Orn^12, Abu^15, Orn^21, Nle^27, Asp^28, Agm^29]hGHRH(1-29)NH2] are within 1.5-fold of each other in IC50: 1.19 nM for the first, 1.09 nM for the second.

Going from B1 to B2, the IC50 falls from 2.6 nM to 0.98 nM (2.7-fold). The second is the more potent here.

[NMeY][dA]DAIFTQSYR[Orn]VL[Abu]QLSAR[Orn]LLQDI[Nle]DR-NHEt [P-28420 [N-Me-Tyr^1, D-Ala^2, Gln^8, Orn^12, Abu^15, Orn^21, Nle^27, Asp^28]hGHRH(1-29)NH-CH2-CH3] gave an IC50 of 2.7 nM.

Going from [NMeY][dA]DAIFTQSYR[Orn]VL[Abu]QLSAR[Orn]LLQDI[Nle]D[Agmatine] [P-20361 [N-Me-Tyr^1, D-Ala^2, Gln^8, Orn^12, Abu^15, Orn^21, Nle^27, Asp^28, Agm^29]hGHRH(1-29)NH2] to [NMeY][dA]DAIFTNSYR[Orn]VL[Abu]QLSAR[Orn]LLQDI[Nle]D[Agmatine] [P-20367 [N-Me-Tyr^1, D-Ala^2, Orn^12, Abu^15, Orn^21, Nle^27, Asp^28, Agm^29]hGHRH(1-29)NH2], the “relative affinity (binding potency) compared to JI-38” value (from here on “relative affinity … to JI-38”) rises from 2.3 vs JI-38=1 to 2.51 vs JI-38=1.

Going from [NMeY][dA]DAI[Phe(F5)]TNSYR[Orn]VL[Abu]QLSAR[Orn]LLQDI[Nle]DR-NHMe [P-27404 [N-Me-Tyr^1, D-Ala^2, Fpa5^6, Orn^12, Abu^15, Orn^21, Nle^27, Asp^28]hGHRH(1-29)NH-CH3] to B1, the “relative affinity … to JI-38” value falls from 2.45 vs JI-38=1 to 1.05 vs JI-38=1.

Compared with B2, [NMeY][dA]DAIFTQSYR[Orn]VL[Abu]QLSAR[Orn]LLQDI[Nle]DR-NHEt [P-28420 [N-Me-Tyr^1, D-Ala^2, Gln^8, Orn^12, Abu^15, Orn^21, Nle^27, Asp^28]hGHRH(1-29)NH-CH2-CH3] is lower in “relative affinity … to JI-38” value: 2.8 vs JI-38=1 for the first, 1.01 vs JI-38=1 for the second.

B3 was tested, and the “relative affinity … to JI-38” value was 1.34 vs JI-38=1.

Going from [NMeY][dA]DAIFTQSYR[Orn]VL[Abu]QLSAR[Orn]LLQDI[Nle]D[Agmatine] [P-20361 [N-Me-Tyr^1, D-Ala^2, Gln^8, Orn^12, Abu^15, Orn^21, Nle^27, Asp^28, Agm^29]hGHRH(1-29)NH2] to [NMeY][dA]DAIFTNSYR[Orn]VL[Abu]QLSAR[Orn]LLQDI[Nle]D[Agmatine] [P-20367 [N-Me-Tyr^1, D-Ala^2, Orn^12, Abu^15, Orn^21, Nle^27, Asp^28, Agm^29]hGHRH(1-29)NH2], the “relative affinity (binding potency) compared to hGHRH(1-29)” value (“relative affinity … to hGHRH(1-29)” for short) rises from 6.42 vs hGHRH(1-29)NH2=1 to 7.01 vs hGHRH(1-29)NH2=1.

Going from [NMeY][dA]DAI[Phe(F5)]TNSYR[Orn]VL[Abu]QLSAR[Orn]LLQDI[Nle]DR-NHMe [P-27404 [N-Me-Tyr^1, D-Ala^2, Fpa5^6, Orn^12, Abu^15, Orn^21, Nle^27, Asp^28]hGHRH(1-29)NH-CH3] to B1, the “relative affinity … to hGHRH(1-29)” value falls from 6.83 vs hGHRH(1-29)NH2=1 to 2.94 vs hGHRH(1-29)NH2=1.

Compared with B2, [NMeY][dA]DAIFTQSYR[Orn]VL[Abu]QLSAR[Orn]LLQDI[Nle]DR-NHEt [P-28420 [N-Me-Tyr^1, D-Ala^2, Gln^8, Orn^12, Abu^15, Orn^21, Nle^27, Asp^28]hGHRH(1-29)NH-CH2-CH3] is lower in “relative affinity … to hGHRH(1-29)” value: 7.81 vs hGHRH(1-29)NH2=1 for the first, 2.83 vs hGHRH(1-29)NH2=1 for the second.

In the case of B3, the “relative affinity … to hGHRH(1-29)” value is reported as 3.75 vs hGHRH(1-29)NH2=1.

biological target: T1, GHRH receptor of human pituitary …; experiment: competition vs 125I-JV-1-42, human pituitary membranes;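 also: pituitaries used were normal human glands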
From the text: Normal human pituitaries were purchased from the National Hormone and Peptide Program (A.F. Parlow, Los Angeles, County Harbor-UCLA Medical Center, Torrance, Calif.).

Compared with [NMeY][dA]DAIFTQSYR[Orn]VL[Abu]QLSAR[Orn]LLQDI[Nle]D[Agmatine] [P-20361 [N-Me-Tyr^1, D-Ala^2, Gln^8, Orn^12, Abu^15, Orn^21, Nle^27, Asp^28, Agm^29]hGHRH(1-29)NH2], [NMeY][dA]DAIFTNSYR[Orn]VL[Abu]QLSAR[Orn]LLQDI[Nle]D[Agmatine] [P-20367 [N-Me-Tyr^1, D-Ala^2, Orn^12, Abu^15, Orn^21, Nle^27, Asp^28, Agm^29]hGHRH(1-29)NH2] is 2.1-fold higher in IC50: 0.82 nM for the first, 1.7 nM for the second.

First: [NMeY][dA]DAI[Phe(F5)]TNSYR[Orn]VL[Abu]QLSAR[Orn]LLQDI[Nle]DR-NHMe [P-27404 [N-Me-Tyr^1, D-Ala^2, Fpa5^6, Orn^12, Abu^15, Orn^21, Nle^27, Asp^28]hGHRH(1-29)NH-CH3]
Second: B1
The IC50 of the first is 3.1-fold lower: 0.87 nM for the first, 2.74 nM for the second.

B2 and [NMeY][dA]DAIFTQSYR[Orn]VL[Abu]QLSAR[Orn]LLQDI[Nle]DR-NHEt [P-28420 [N-Me-Tyr^1, D-Ala^2, Gln^8, Orn^12, Abu^15, Orn^21, Nle^27, Asp^28]hGHRH(1-29)NH-CH2-CH3] are within 1.5-fold of each other in IC50: 0.71 nM for the first, 0.52 nM for the second.

With B3 the IC50 was 1.99 nM.

Compared with [NMeY][dA]DAIFTQSYR[Orn]VL[Abu]QLSAR[Orn]LLQDI[Nle]D[Agmatine] [P-20361 [N-Me-Tyr^1, D-Ala^2, Gln^8, Orn^12, Abu^15, Orn^21, Nle^27, Asp^28, Agm^29]hGHRH(1-29)NH2], [NMeY][dA]DAIFTNSYR[Orn]VL[Abu]QLSAR[Orn]LLQDI[Nle]D[Agmatine] [P-20367 [N-Me-Tyr^1, D-Ala^2, Orn^12, Abu^15, Orn^21, Nle^27, Asp^28, Agm^29]hGHRH(1-29)NH2] is lower in “relative affinity (binding potency) vs JI-38” value (shortened to “relative affinity … vs JI-38”): 5.3 vs JI-38=1 for the first, 2.56 vs JI-38=1 for the second.

Going from [NMeY][dA]DAI[Phe(F5)]TNSYR[Orn]VL[Abu]QLSAR[Orn]LLQDI[Nle]DR-NHMe [P-27404 [N-Me-Tyr^1, D-Ala^2, Fpa5^6, Orn^12, Abu^15, Orn^21, Nle^27, Asp^28]hGHRH(1-29)NH-CH3] to B1, the “relative affinity … vs JI-38” value falls from 5 vs JI-38=1 to 1.59 vs JI-38=1.

Compared with B2, [NMeY][dA]DAIFTQSYR[Orn]VL[Abu]QLSAR[Orn]LLQDI[Nle]DR-NHEt [P-28420 [N-Me-Tyr^1, D-Ala^2, Gln^8, Orn^12, Abu^15, Orn^21, Nle^27, Asp^28]hGHRH(1-29)NH-CH2-CH3] is higher in “relative affinity … vs JI-38” value: 6.12 vs JI-38=1 for the first, 8.37 vs JI-38=1 for the second.

For B3, the “relative affinity … vs JI-38” value was 2.18 vs JI-38=1.
